Where two headings read alike, the source gives them in different places.
What was measured:
[1] = biological target: human PD-L1 (PD-L1 aAPC/CHO-K1 cells) (human) (UniProt Q9NZQ7)
TGF-β3 [2] = test: ELISA: TGF-β3 coated on the plate, HRP-conjugated 2nd antibody, OD450
TGF-β2 [3] = test: SPR, TGFβ ligand amine-coupled to chip, fusion protein as analyte, 25 °C, HBS-EP
TGF-β1 [4] = test: as above
TGF-β3 [5] = test: as above
TGF-β1 [6] = test: ELISA: TGF-β1 coated on the plate, HRP-conjugated 2nd antibody, OD450
TGF-β2 [7] = test: ELISA: TGF-β2 coated on the plate, HRP-conjugated 2nd antibody, OD450
TGF-β1 [8] = test: ELISA: TGF-β1 coated on the plate, HRP-conjugated 2nd antibody, OD450; remark: listed apart in the source
TGF-β2 [9] = test: ELISA: TGF-β2 coated on the plate, HRP-conjugated 2nd antibody, OD450; remark: listed apart in the source
[10] = biological target: PD-L1 that is over expressed on CHO-K1 cells (Homo sapiens (Human)) (UniProt Q9NZQ7); test: flow cytometry (FACS) on CHO-K1 cells over expressing PD-L1, geometric mean
Chain of PD-L1 that is over expressed on CHO-K1 cells (Homo sapiens (Human)) (Q9NZQ7 19-290 limits assumed): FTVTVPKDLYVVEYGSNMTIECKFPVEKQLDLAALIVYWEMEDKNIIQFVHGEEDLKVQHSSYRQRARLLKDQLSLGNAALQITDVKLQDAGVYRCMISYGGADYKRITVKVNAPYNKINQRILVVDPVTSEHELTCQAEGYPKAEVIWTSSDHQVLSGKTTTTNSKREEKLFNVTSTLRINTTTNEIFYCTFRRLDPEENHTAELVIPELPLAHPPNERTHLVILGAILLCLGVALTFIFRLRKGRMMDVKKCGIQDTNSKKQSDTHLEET

[11] = biological target: human PD-L1 (PD-L1 aAPC/CHO-K1 cells) (human) (UniProt Q9NZQ7); remark: listed apart in the source
TGF-β3 [12] = test: ELISA: TGF-β3 coated on the plate, HRP-conjugated 2nd antibody, OD450; remark: listed apart in the source

Chain of TGF-β1 (P01137 279-390): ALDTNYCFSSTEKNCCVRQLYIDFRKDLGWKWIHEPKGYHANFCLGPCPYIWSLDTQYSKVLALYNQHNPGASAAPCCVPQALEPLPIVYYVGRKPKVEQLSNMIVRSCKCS
Chain of human PD-L1 (PD-L1 aAPC/CHO-K1 cells) (human) (Q9NZQ7 19-290): as the sequence (Q9NZQ7 19-290 limits assumed) above
Chain of TGF-β3 (P10600 301-412): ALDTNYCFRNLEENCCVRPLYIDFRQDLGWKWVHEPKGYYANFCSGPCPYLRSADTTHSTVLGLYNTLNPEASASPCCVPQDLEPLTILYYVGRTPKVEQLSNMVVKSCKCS
Chain of TGF-β2 (P61812 303-414): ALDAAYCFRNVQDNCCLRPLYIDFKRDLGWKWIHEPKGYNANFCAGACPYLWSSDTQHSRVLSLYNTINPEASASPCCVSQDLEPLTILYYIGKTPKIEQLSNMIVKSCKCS

Substance	EC50, luminescence (RLU) of PD-1 effector cells co-cultured with PD-L1 aAPC/CHO-K1 cells, PD-1/PD-L1 blockade bioassay [1] [nM]	EC50 (TGF-β3 [2]) [µg/mL]	Kd (TGF-β2 [3]) [nM]	koff (TGF-β2 [3]) [s⁻¹]	kon (TGF-β2 [3]) [M⁻¹ s⁻¹]	Kd (TGF-β1 [4]) [nM]	koff (TGF-β1 [4]) [s⁻¹]	kon (TGF-β1 [4]) [M⁻¹ s⁻¹]	Kd (TGF-β3 [5]) [nM]	koff (TGF-β3 [5]) [s⁻¹]	kon (TGF-β3 [5]) [M⁻¹ s⁻¹]	EC50 (TGF-β1 [6]) [µg/mL]	EC50 (TGF-β2 [7]) [µg/mL]	EC50 (TGF-β1 [8]) [µg/mL]	EC50 (TGF-β2 [9]) [µg/mL]	EC50 [10] [nM]	EC50, luminescence (RLU) of PD-1 effector cells co-cultured with PD-L1 aAPC/CHO-K1 cells, PD-1/PD-L1 blockade bioassay [11] [nM]	EC50 (TGF-β3 [12]) [µg/mL]
Tecentriq (antibody)	0.398	–	–	–	–	–	–	–	–	–	–	–	–	–	–	–	–	–
M7824	0.852	0.307	4.6	0.00132	286000	0.943	0.000315	334000	1.02	0.00032	314000	0.255	0.348	0.327	0.432	0.344	0.77	0.278

From patent US20230093512A1
